# According to paper PMC7858651, “Modulation of Increased mGluR1 Signaling by RGS8 Protects Purkinje Cells From Dendritic Reduction and Could Be a Common Mechanism in Diverse Forms of Spinocerebellar Ataxia” (Frontiers in Cell and Developmental Biology, 2020):
# B1: metabotropic glutamate receptor 1 (mGluR1) (receptor, UniProt P97772 21-1199, looked up)
# chain: RMPDRKVLLAGASSQRSVARMDGDVIIGALFSVHHQPPAEKVPERKCGEIREQYGIQRVEAMFHTLDKINADPVLLPNITLGSEIRDSCWHSSVALEQSIEFIRDSLISIRDEKDGLNRCLPDGQTLPPGRTKKPIAGVIGPGSSSVAIQVQNLLQLFDIPQIAYSATSIDLSDKTLYKYFLRVVPSDTLQARAMLDIVKRYNWTYVSAVHTEGNYGESGMDAFKELAAQEGLCIAHSDKIYSNAGEKSFDRLLRKLRERLPKARVVVCFCEGMTVRGLLSAMRRLGVVGEFSLIGSDGWADRDEVIEGYEVEANGGITIKLQSPEVRSFDDYFLKLRLDTNTRNPWFPEFWQHRFQCRLPGHLLENPNFKKVCTGNESLEENYVQDSKMGFVINAIYAMAHGLQNMHHALCPGYVGLCDAMKPIDGRKLLDFLIKSSFVGVSGEEVWFDEKGDAPGRYDIMNLQYTEANRYDYVHVGTWHEGVLNIDDYKIQMNKSGMVRSVCSEPCLKGQIKVIRKGEVSCCWICTACKENEFVQDEFTCRACDLGWWPNAELTGCEPITIRYLEWSDIESIIAIAFSCLGILVTLFVTLIFVLYRDTPVVKSSSRELCYIILAGIFLGYVCPFTLIAKPTTTSCYLQRLLVGLSSAMCYSALVTKTNRIARILAGSKKKICTRKPRFMSAWAQVIIASILISVQLTLVVTLIIMEPPMPILSYPSIKEVYLICNTSNLGVVAPVGYNGLLIMSCTYYAFKTRNVPANFNEAKYIAFTMYTTCIIWLAFVPIYFGSNYKIITTCFAVSLSVTVALGCMFTPKMYIIIAKPERNVRSAFTTSDVVRMHVGDGKLPCRSNTFLNIFRRKKPGAGNANSNGKSVSWSEPGGRQAPKGQHVWQRLSVHVKTNETACNQTAVIKPLTKSYQGSGKSLTFSDASTKTLYNVEEEDNTPSTHFSPPSSPSMVVHRRGPPVATTPPLPPHLSAEETPLFLADSVIPKGLPPPLPQQQQQPPPQPPPQQPKSLMDQLQGVVTNFGSGIPDFHAVLAGPGTPGNGLRSLYPPPPPPQHLQMLPLQLSTFREEPISPPGEDDDDDSSERFKLLQEFVYEREGNTEEDDLEEEEDLPAASKLTPEDSPALTPPSPFRDSVASGSSVPSSPVSESVLCTPPNVTYASVILRDYKQSSSTL
# notes: metabotropic glutamate receptor 1 (mGluR1), expressed from the vector pCMV-mGluR1 bought from Origene; source: HEK293T, transfected (pCMV-mGluR1, Origene), in lysate
# Experiments:
# PKCγ(S361G)-tGFP = target: T1, PKCγ(S361G)-tGFP (human, UniProt P05129 1-697, S361G); experiment: co-IP; HEK293T cells expressing mGluR1, transfected with PKCγ-tGFP, PKCγ(S361G)-tGFP or tGFP alone; tGFP trap agarose beads (Chromotek); IPs blotted with anti-mGluR1 and anti-tGFP; amounts quantified and normalised to wild-type PKCγ-tGFP; conditions: partners not purified
# T1 construct: Protein Kinase C gamma (PKCγ) with the SCA14-associated human mutation S361G; plasmid pCMV-PKCγ(S361G)-tGFP, a gift (Shimobayashi and Kapfhammer, 2017); also called mutated PKCγ(S361G); mutant PKCγ(S361G); source: HEK293T, transfected (pCMV-PKCγ(S361G)-tGFP), in lysate
# wild-type PKCγ-tGFP = target: T2, wild-type PKCγ-tGFP (UniProt P05129 1-697); experiment: as above; conditions: partners not purified
# T2 construct: Protein Kinase C gamma (PKCγ), wild type; plasmid pCMV-PKCγ-tGFP, a gift (Shimobayashi and Kapfhammer, 2017); also called WT PKCγ; source: HEK293T, transfected (pCMV-PKCγ-tGFP), in lysate
binder,measurement,setting,value
B1,"relative amount bound, normalised to wild-type PKCγ-tGFP",PKCγ(S361G)-tGFP,1.26 relative to wild-type PKCγ-tGFP
same,"relative amount bound, normalised to wild-type PKCγ-tGFP",wild-type PKCγ-tGFP,1 relative to wild-type PKCγ-tGFP
